B1: Cryptochrome-2 (Mus musculus), Q9R194 (parent)
chain: MAAAAVVAATVPAQSMGADGASSVHWFRKGLRLHDNPALLAAVRGARCVRCVYILDPWFAASSSVGINRWRFLLQSLEDLDTSLRKLNSRLFVVRGQPADVFPRLFKEWGVTRLTFEYDSEPFGKERDAAIMKMAKEAGVEVVTENSHTLYDLDRIIELNGQKPPLTYKRFQALISRMELPKKPAVAVSSQQMESCRAEIQENHDDTYGVPSLEELGFPTEGLGPAVWQGGETEALARLDKHLERKAWVANYERPRMNANSLLASPTGLSPYLRFGCLSCRLFYYRLWDLYKKVKRNSTPPLSLFGQLLWREFFYTAATNNPRFDRMEGNPICIQIPWDRNPEALAKWAEGKTGFPWIDAIMTQLRQEGWIHHLARHAVACFLTRGDLWVSWESGVRVFDELLLDADFSVNAGSWMWLSCSAFFQQFFHCYCPVGFGRRTDPSGDYIRRYLPKLKGFPSRYIYEPWNAPESVQKAAKCIIGVDYPRPIVNHAETSRLNIERMKQIYQQLSRYRGLCLLASVPSCVEDLSHPVAEPGSSQAGSISNTGPRALSSGPASPKRKLEAAEEPPGEELTKRARVTEMPTQEPASKDS
B2: F-box/LRR-repeat protein 3 (Homo sapiens), Q9UKT7 (parent)
chain: MKRGGRDSDRNSSEEGTAEKSKKLRTTNEHSQTCDWGNLLQDIILQVFKYLPLLDRAHASQVCRNWNQVFHMPDLWRCFEFELNQPATSYLKATHPELIKQIIKRHSNHLQYVSFKVDSSKESAEAACDILSQLVNCSLKTLGLISTARPSFMDLPKSHFISALTVVFVNSKSLSSLKIDDTPVDDPSLKVLVANNSDTLKLLKMSSCPHVSPAGILCVADQCHGLRELALNYHLLSDELLLALSSEKHVRLEHLRIDVVSENPGQTHFHTIQKSSWDAFIRHSPKVNLVMYFFLYEEEFDPFFRYEIPATHLYFGRSVSKDVLGRVGMTCPRLVELVVCANGLRPLDEELIRIAERCKNLSAIGLGECEVSCSAFVEFVKMCGGRLSQLSIMEEVLIPDQKYSLEQIHWEVSKHLGRVWFPDMMPTW
partner: B1 chain

One experiment covers variants of B1. The conditions noted are these: with per1_human PER1, O15534.
Sequence of per1_human PER1, O15534 (O15534 whole entry): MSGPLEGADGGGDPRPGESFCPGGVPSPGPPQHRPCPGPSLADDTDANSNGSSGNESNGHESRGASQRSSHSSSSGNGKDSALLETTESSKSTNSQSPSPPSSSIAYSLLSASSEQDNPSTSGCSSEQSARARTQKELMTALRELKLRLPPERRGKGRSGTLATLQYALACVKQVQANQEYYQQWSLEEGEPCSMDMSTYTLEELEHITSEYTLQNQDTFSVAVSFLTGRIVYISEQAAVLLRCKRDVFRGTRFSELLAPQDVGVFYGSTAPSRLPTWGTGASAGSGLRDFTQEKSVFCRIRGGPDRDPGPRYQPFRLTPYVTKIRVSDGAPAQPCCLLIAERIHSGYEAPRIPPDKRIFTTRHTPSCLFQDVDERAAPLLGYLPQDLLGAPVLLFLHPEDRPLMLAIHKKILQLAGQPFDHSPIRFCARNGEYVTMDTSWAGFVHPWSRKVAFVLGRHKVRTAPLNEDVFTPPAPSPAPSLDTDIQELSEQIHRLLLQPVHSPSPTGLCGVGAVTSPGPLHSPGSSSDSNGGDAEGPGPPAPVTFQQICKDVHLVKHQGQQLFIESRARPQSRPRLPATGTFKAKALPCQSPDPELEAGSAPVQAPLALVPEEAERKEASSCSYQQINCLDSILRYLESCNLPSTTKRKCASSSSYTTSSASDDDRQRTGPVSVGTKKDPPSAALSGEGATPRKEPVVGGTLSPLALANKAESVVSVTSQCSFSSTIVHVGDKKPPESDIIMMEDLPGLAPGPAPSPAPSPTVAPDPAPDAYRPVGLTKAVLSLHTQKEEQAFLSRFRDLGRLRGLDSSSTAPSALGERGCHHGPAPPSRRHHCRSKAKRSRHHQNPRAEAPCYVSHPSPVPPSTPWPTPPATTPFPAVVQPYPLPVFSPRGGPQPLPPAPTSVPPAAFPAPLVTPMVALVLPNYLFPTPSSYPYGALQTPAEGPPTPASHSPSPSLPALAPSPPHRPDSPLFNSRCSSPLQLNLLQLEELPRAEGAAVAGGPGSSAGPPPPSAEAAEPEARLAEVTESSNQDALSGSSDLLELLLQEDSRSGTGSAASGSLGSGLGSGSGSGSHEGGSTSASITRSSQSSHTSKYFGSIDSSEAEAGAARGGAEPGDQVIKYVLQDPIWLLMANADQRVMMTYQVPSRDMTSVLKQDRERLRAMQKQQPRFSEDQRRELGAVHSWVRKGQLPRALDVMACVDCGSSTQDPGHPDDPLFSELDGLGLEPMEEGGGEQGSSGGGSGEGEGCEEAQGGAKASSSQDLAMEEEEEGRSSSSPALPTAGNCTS
In the case of D339R, the “effect of a mutation on the interaction” value is “disrupting interaction strength”.

Variants of B2 are the subject of the next experiment. The settings on record: with cry2_mouse Cry2, Q9R194.
Consider W428A, for which the “effect of a mutation on the interaction” value is listed as “decreasing interaction strength”. For Y314A, the “effect of a mutation on the interaction” value was “disrupting interaction strength”. In the case of Y292A, the “effect of a mutation on the interaction” value is given as “decreasing interaction strength”. On the same count and under the same terms, then P426A, with “disrupting interaction strength”; and E336A, with “disrupting interaction strength”.

The values are drawn from IntAct's records for PubMed 23503662.
